Data as given in article PMC9460772 (2022).

Biological target: PPIA (Homo sapiens, UniProt P62937)
Test: NMR

For PRPRPRPRPRPRPRPRPRPRPRPRPRPRPRPRPRPRPRPR [PR20 proline-arginine dipeptide repeat], the Kd was 23 µM.
